Source: paper PMC3863769

Target: mPVR-Ig (extracellular portion of mouse PVR fused to the Fc portion of human IgG1) (mouse)
Test: SPR

Kd: 5.16 µM
koff: 0.00259 s⁻¹
kon: 502 M⁻¹ s⁻¹
B1: mDNAM1-Ig (extracellular portion of mouse DNAM1 fused to the Fc portion of human IgG1) (Fc fusion)
chain: EETLWDTTVRLSETMTLECVYPLTHNLTQVEWTKNTGTKTVSIAVYNPNHNMHIESNYLHRVHFLNSTVGFRNMSLSFYNASEADIGIYSCLFHAFPNGPWEKKIKVVWSDSFEIAAPSDSYLSAEPGQDVTLTCQLPRTWPVQQVIWEKVQPHQVDILASCNLSQETRYTSKYLRQTRSNCSQGSMKSILIIPNAMAADSGLYRCRSEAITGKNKSFVIRLIITDGGTNKHFILP
